Results as given in patent US20100061996.

Biological target: pro-uPA (pro-urokinase-type plasminogen activator, single-chain zymogen form of uPA) (UniProt P00749)

Chain of soluble His-tagged hepsin comprising the entire extracellular domain of human hepsin (Arg45-Leu417) (chain, as listed by the source): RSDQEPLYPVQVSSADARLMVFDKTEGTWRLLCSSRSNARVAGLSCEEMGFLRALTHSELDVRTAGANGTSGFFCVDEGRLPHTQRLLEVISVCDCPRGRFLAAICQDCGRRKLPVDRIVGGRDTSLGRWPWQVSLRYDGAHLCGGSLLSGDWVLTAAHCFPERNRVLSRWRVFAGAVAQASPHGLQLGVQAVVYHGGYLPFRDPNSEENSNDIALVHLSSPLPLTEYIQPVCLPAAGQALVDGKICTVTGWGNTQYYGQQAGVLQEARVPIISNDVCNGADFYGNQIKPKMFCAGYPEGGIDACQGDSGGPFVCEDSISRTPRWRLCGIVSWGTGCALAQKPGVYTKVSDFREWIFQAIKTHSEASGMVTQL

In the case of “soluble His-tagged hepsin comprising the entire extracellular domain of human hepsin (Arg45-Leu417)”, the “cleavage of pro-uPA (SDS-PAGE, 1.5 uM pro-uPA, 15 nM hepsin)” value is reported as “Incubation of pro-uPA with hepsin resulted in a time-dependent cleavage of the single-chain form into the two-chain form”, the k (first-order rate constant of pro-uPA activation) is reported as 0.0871 min⁻¹ and the kcat/Km of pro-uPA activation is reported as 484000 M⁻¹ s⁻¹.
